From paper PMC5700813, “A recombinant BBSome core complex and how it interacts with ciliary cargo” (eLife, 2017)
Several values for one entry are separate records, joined by “and”; a condition that tells them apart may be missing. Equal values may be shown once.

Assay: Solubility of purified core BBSome
Assay type: physicochemical
Conditions: purified 6mer core BBSome
Protocol: The 6mer core BBSome could readily be purified in milligram quantities, and is soluble up to concentrations higher than 150 µM (>50 mg/ml). A single Strep affinity purification yielded almost pure complex with no obvious imbalance in the stoichiometry of components. The complex eluted as a single entity in all subsequent purification steps (Figure 1—figure supplement 3E), and was even resistant to high salt washes of up to 2.5 M NaCl, consistent with a previous study where the native BBSome was eluted with high salt concentrations from an Arl6 affinity column ([Jin et al., 2010]). The complex elutes in gel filtration with an apparent molecular weight of ~400 kDa, in acceptable agreement with the expected theoretical mass of 336.4 kDa (Figure 1—figure supplement 3C,D), but less consistent with it being a dimer.

6mer core BBSome: recombinant human subcomplex composed of BBS1, 4, 5, 8, 9 and 18
soluble up to concentration: higher than 150 µM and > 50 mg/ml
